# Measured values: patent publication US20160009800A1 (XOMA US, published 2016)
# Experiments:
# human insulin receptor [1] = biological target: T1, human insulin receptor (human, UniProt P06213 28-1382); experiment: FACS, serum-starved CHO-K1 cells expressing human INSR, no insulin [cont'd]
# T1 construct: whole, on cells; Uncomplexed receptor on serum-starved cells (CHOK1 transfectants or IM-9); also called hINSR; INSR
# Procedure: (§1) Twenty five microliter aliquots of cells were plated into 96 well plates, mixed with 25 ul of antibody or PPE and incubated on ice for 1 h.
# (§2) The cells were then washed once with FACS buffer and the binding of the antibody was detected by the addition of 25 ul of an appropriate fluorochrome-conjugated secondary antibody. […] After a final 15 min incubation on ice the cells were washed and the pellets resuspended in FACS buffer. The cells were analyzed on a FACSCAN™ (Becton-Dickinson, Milipitas, Calif.) and the data analyzed in both FLOWJO™ (Treestar, Ashland, Oreg.) and Microsoft Excel™.
# mouse insulin receptor [2] = biological target: T2, mouse insulin receptor (mouse, UniProt P15208 28-1372); experiment: FACS, serum-starved CHO-K1 cells expressing mouse INSR, no insulin [cont'd]
# T2 construct: whole, on cells; also called muINSR; mINSR
# Procedure: as §1, §2
# [3] = biological target: T3, mouse insulin receptor complexed with human insulin (mouse; human, UniProt P15208 28-1372; P01308 25-54; P01308 90-110); experiment: FACS, serum-starved CHO-K1 cells expressing mouse INSR, with insulin [cont'd]
# T3 construct: whole, on cells;mature; also called muINSR/hINS complex
# [4] = biological target: T4, human insulin receptor complexed with human insulin (human, UniProt P06213 28-1382; P01308 25-54; P01308 90-110); experiment: FACS, serum-starved CHO-K1 cells expressing human INSR, with insulin [cont'd]
# T4 construct: whole, on cells;mature; also called hINSR-hINS complex; INS/INSR complex
# Procedure: as §1, §2
# [5] = biological target: T4, human insulin receptor complexed with …; experiment: FACS, CHO-K1 human INSR cells, signal with insulin divided by signal without insulin [cont'd]
# Procedure: as §1, §2
# [6] = biological target: T3, mouse insulin receptor complexed with …; experiment: FACS, CHO-K1 mouse INSR cells, signal with insulin divided by signal without insulin [cont'd]
# mouse insulin receptor [7] = biological target: T2, mouse insulin receptor; experiment: FACS, serum-starved CHO-K1 cells expressing mouse INSR, no insulin
# [8] = biological target: T3, mouse insulin receptor complexed with …; experiment: FACS, CHO-K1 mouse INSR cells, signal with insulin divided by signal without insulin
# Procedure: as §1, §2
# human insulin receptor [9] = biological target: T1, human insulin receptor; experiment: FACS, serum-starved CHO-K1 cells expressing human INSR, no insulin
# Procedure: as §1, §2
# [10] = biological target: T3, mouse insulin receptor complexed with …; experiment: FACS, serum-starved CHO-K1 cells expressing mouse INSR, with insulin
# Procedure: as §1, §2
# [11] = biological target: T4, human insulin receptor complexed with …; experiment: FACS, CHO-K1 human INSR cells, signal with insulin divided by signal without insulin
# Procedure: as §1, §2
# [12] = biological target: T4, human insulin receptor complexed with …; experiment: FACS, serum-starved CHO-K1 cells expressing human INSR, with insulin
# Procedure: as §1, §2
Binder,FACS area under log transformed data MFI (human insulin receptor [1]),FACS area under log transformed data MFI (mouse insulin receptor [2]),FACS area under log transformed data MFI [3],FACS area under log transformed data MFI [4],FACS area under log transformed data MFI ratio (+insulin/-insulin) [5],FACS area under log transformed data MFI ratio (+insulin/-insulin) [6],FACS area under log transformed data MFI (mouse insulin receptor [7]),FACS area under log transformed data MFI ratio (+insulin/-insulin) [8],FACS area under log transformed data MFI (human insulin receptor [9]),FACS area under log transformed data MFI [10],FACS area under log transformed data MFI ratio (+insulin/-insulin) [11],FACS area under log transformed data MFI [12]
"Ab068 (antibody, IgG2, V domains shown, also called XPA.015.217) VH: EVQLVQSGAEVKQPGSSVKVSCKASGGSFNSYTFSWVRQAPGQGLEWMGWISAYNGGTNYFANYALKFQGRVTMTTDTSTGTAYMELRSLRSDDTAVYYCARVRDSWSHEDYSYYYYMDVWGKGTTVTVSS VL: DVVMTQTPLSLSVTPGQPASISCKASQSLLYTNGDTYVSWYVQKPGQAPQLLFSDVSSRFFGVPDRFSASGSGTDFTLKISRVEAEDVGVYYCVQAMYLPLVFGQGTKVEIK",–,–,–,–,–,–,803,0.55,1420,445,0.72,1030
"Ab074 (antibody, IgG2, V domains shown, also called XPA.015.230) VH: EVQLVQSGAEVKKPGESLKISCKGSGYSFTSYWIGWVRQMPGKGLEWMGIIYPGDSDTRYSPSFQGQVTISADKSISTAYLQWSSLKASDTAMYYCARWDAGYSPWGQGTLVTVSS VL: SSELTQDPAVSVALGQTVRITCQGDSLRSYYASWYQQKPGQAPVLVIYGKNNRPSGIPDRFSGSSSGNTASLTITGAQAEDEADYYCSSRDSSGDQWVFGGGTKLTVL",596,932,503,260,0.44,0.54,–,–,–,–,–,–
"Ab071 (antibody, IgG2, V domains shown, also called XPA.015.227) VH: EVQLVQSGAEVKKPGESLKISCKGSGYSFTSYWIGWVRQMPGKGLEWMGIIYPGDSDTRYSPSFQGQVTISADKSISTAYLQWSSLKASDTAMYYCARWDAGYSPWGQGTLVTVSS VL: SSELTQDPAVSVALGQTVRITCQGDSLRSYYASWYQQKPGQAPVLVFYGKNNRPSGIPGRFSGSKSGNTASLTITGAQAEDEADYYCNSRDSSGNHWVFGGGTKLTVL",490,818,518,–,–,0.63,–,–,–,–,–,–
"Ab051 (antibody, IgG2, V domains shown, also called XPA.015.194) VH: QVQLVQSGAEVKKPGSSVKVSCKASGGTFSSYAISWVRQAPGQGLEWMGGIIPIFGTANYAQKFQGRVTITADESTSTAYMELSSLRSEDTAVYYCAGKLYSRDYWYFDLWGRGTLVTVSS VL: SSELTQDPAVSVALGQTVRITCQGNSLRSFYATWYQQKPGQAPVLVIYGKNIRPSGIPDRFSGSNSGDTASLTITGTQAEDEADYYCNSRDNNRNHLLFAGGTKVTVL",–,–,–,–,–,–,663,0.71,554,470,0.68,378
"Ab072 (antibody, IgG2, V domains shown, also called XPA.015.228) VH: QMQLVQSGAEVKKPGESLKISCKGSGYSFTGYWIGWVRQMPGKGLEWMGIIYPGDSDTRYSPSFQGQVTISADKSISTAYLQWSSLKVSDTAMYYCGRISTPYAFDIWGQGTMVTVSS VL: SYVLTQPPSASGTPGQRVTISCSGSNSNIGSNFVTWYQQLPGAAPKLLIYTNSQRPSGVPDRFSGSRSGTSASLAISGLQSEDEADYFCAAWDDSLNGPVFGGGTQLTVL",226,508,267,–,–,0.53,–,–,–,–,–,–
"Ab055 (antibody, IgG2, V domains shown, also called XPA.015.198) VH: QVQLVQSGAEVKKPGSSVKVSCKASGGTFSSYAISWVRQAPGQGLEWMGGIIPIFGTANYAQKFQGRVTITADESTSTAYMELSSLRSEDTAVYYCARGQGWLRFYGMDVWGQGTTVTVSS VL: SYELTQLPSVSVSPGQTARITCSGDALPNKYAYWYQQKSGQAPVLVIYEDTRRPSEIPERFSASSSGTMATLTISGAQVEDEAEYYCYSTDSSGNERVFGGGTKLTVL",–,–,–,–,–,–,1300,0.81,1190,1050,0.64,759
"Ab058 (antibody, IgG2, V domains shown, also called XPA.015.202) VH: QLQLQQWGAGLLKPSETLSLTCAVYSGSFSGYYYSWIRQSPGRGLEWIGDISHTGSTDYNPSLKTRVTISVDTSKNQFSLNLNSVTAADTAVYYCARDAPKGGSGLYLFDYWGQGTLVTVSS VL: QSVLTQPPSVSGAPGQRVTISCTGSRSNIGADHDVHWYQQIPGRAPKLLIYGNSNRPSGVPDRFSGSRSGTSASLAITGLQAEDEADYYCQSYDNSLSGSVFGGGTKLTVL",–,–,–,–,–,–,812,0.48,1410,388,0.26,370

# The next lines start with the values.
FACS area under log transformed data MFI (human insulin receptor [1]),FACS area under log transformed data MFI (mouse insulin receptor [2]),FACS area under log transformed data MFI [3],FACS area under log transformed data MFI [4],FACS area under log transformed data MFI ratio (+insulin/-insulin) [5],FACS area under log transformed data MFI ratio (+insulin/-insulin) [6],FACS area under log transformed data MFI (mouse insulin receptor [7]),FACS area under log transformed data MFI ratio (+insulin/-insulin) [8],FACS area under log transformed data MFI (human insulin receptor [9]),FACS area under log transformed data MFI [10],FACS area under log transformed data MFI ratio (+insulin/-insulin) [11],FACS area under log transformed data MFI [12],Binder
729,307,321,341,0.47,1.05,–,–,–,–,–,–,"Ab073 (antibody, IgG2, V domains shown, also called XPA.015.229) VH: QVQLQESGPGLVKPSGTLSLTCAVSGGSISSSNWWSWVRQPPGKGLEWIGEIYHSGSTNYNPSLKSRVTISVDKSKNQFSLKLSSVTAADTAVYYCARVGAAAAWFDPWGQGTLVTVSS VL: QSVLTQPPSVSAAAGQKVTISCSGSSSNIGNNYVTWYQHVPGTAPKLLIFDNDKRPSGIPDRFSGSKSGTSATLAITGLQTGDEADYYCGTWDSSLNPLFGGSTQLTVL"
692,425,446,353,0.51,1.05,–,–,–,–,–,–,"Ab075 (antibody, IgG2, V domains shown, also called XPA.015.232) VH: EVQLVETGGGVVQPGRSLRLSCAASGFSFSSYDMYWVRQAPGKGLEWVAVISYDGNDKQYADSVKGRFTISRDNSKRTLYLQMDSLRTEDTATYYCTREGNGREIDYWGPGTLVTVSS VL: QSVLTQPPSVSAAPGQKVTISCSGSSSNIGNNYVTWYQHVPGTAPKLLIFDNDKRPSGIPDRFSGSKSGTSATLAITGLQTGDEADYYCGTWDSSLNPLFGGGTQLTVL"
552,268,391,543,0.98,1.46,–,–,–,–,–,–,"Ab076 (antibody, V domains shown, also called XPA.015.241) VH: EVQLVESGGGVVQPGGSLRLSCAASGFTFDDYAMHWVRQAPGKGLEWVSLISWDGGSTYYADSVKGRFTISRDNSKNSLYLQMNSLRAEDTALYYCAKARGVVIIDYWGQGTLVTVSS VL: EIVMTQSPATLSVSPGERATLSCRASQSISTNLAWYQQKPGQTPRLLIYGASTRATGIPARFSGSGSGTEFTLTISSLQSEDFAVYYCQQYNSEISFGQGTRLEIK"
399,257,267,–,–,1.04,–,–,–,–,–,–,"Ab082 (antibody, IgG2, V domains shown, also called XPA.015.248) VH: QMQLVQSGAEVKKPGESLKISCKGSGYSFTSYWIGWVRQMPGKGLEWMGIIYPGDSDTRYSPSFQGQVTISADKSISTAYLQWSSLKASDTAMYYCARWGPDAFDIWGQGTMVTVSS VL: EIVLTQSPDFQSVTPKETVTISCRASQNIGVSLHWYQQKPDQSPKVLIKYASQSLSGVPSRFSGTGSGTDFTLTIKSLEAEDAATYYCLQTSSLPWTFGQGTKVEIK"
532,196,344,508,0.95,1.75,–,–,–,–,–,–,"Ab084 (antibody, IgG2, V domains shown, also called XPA.015.250) VH: QVQLVESGGGLVQPGGSLRLSCAASGFTFKNYWMTWVRQAPGKGLEWVADIKGDGSRQHYADSVKGRFTISRDNARNSLFLQMNSLRVEDTALYYCATDPPWDRDAFDLWGQGTMVTVSS VL: AIRMTQSPSTLSASVGDRVTITCRASQSISSWLAWYQQTPGKAPKLLIYAASNLQSGVPSRFSGSGSGTDFTLTISSLQPEDFATYYCQQSYNTPLTFGGGTKVEIK"
